Results as given in PMC10746786 (2023).

Legend:
PRRC2A = assay: co-immunoprecipitation followed by mass spectrometry; conditions: FLAG-tagged EIF4G2 transfected into HEK293T cells; corrected for EIF4G2 levels in IP; read off a plot
PRRC2B = assay: as above; conditions: FLAG-tagged EIF4G2 transfected into HEK293T cells; corrected for EIF4G2 levels in IP; read off a plot

Row | ratio to parent (PRRC2A) | ratio to parent (PRRC2B) | Substance
1 | 3 | 2.3 | FLAG-tagged EIF4G2 WT (from UniProt P78344) R178Q
2 | 3 | – | FLAG-tagged EIF4G2 WT (from UniProt P78344) R165C
